From patent US20060205646

What was measured:
[1] = biological target: bovine serum albumin (UniProt P02769)
[2] = test system: T1, p26 protein from Artemia franciscana
T1 sequence: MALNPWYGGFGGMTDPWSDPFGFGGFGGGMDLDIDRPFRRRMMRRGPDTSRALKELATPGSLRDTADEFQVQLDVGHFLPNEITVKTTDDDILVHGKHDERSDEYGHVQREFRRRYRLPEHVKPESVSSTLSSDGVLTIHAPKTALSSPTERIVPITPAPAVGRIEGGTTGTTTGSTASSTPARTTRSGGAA

[3] = test system: Heat gamma
Chain of Heat gamma (chain, as listed by the source): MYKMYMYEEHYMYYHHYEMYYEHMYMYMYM

Chain of bovine serum albumin (P02769 25-607): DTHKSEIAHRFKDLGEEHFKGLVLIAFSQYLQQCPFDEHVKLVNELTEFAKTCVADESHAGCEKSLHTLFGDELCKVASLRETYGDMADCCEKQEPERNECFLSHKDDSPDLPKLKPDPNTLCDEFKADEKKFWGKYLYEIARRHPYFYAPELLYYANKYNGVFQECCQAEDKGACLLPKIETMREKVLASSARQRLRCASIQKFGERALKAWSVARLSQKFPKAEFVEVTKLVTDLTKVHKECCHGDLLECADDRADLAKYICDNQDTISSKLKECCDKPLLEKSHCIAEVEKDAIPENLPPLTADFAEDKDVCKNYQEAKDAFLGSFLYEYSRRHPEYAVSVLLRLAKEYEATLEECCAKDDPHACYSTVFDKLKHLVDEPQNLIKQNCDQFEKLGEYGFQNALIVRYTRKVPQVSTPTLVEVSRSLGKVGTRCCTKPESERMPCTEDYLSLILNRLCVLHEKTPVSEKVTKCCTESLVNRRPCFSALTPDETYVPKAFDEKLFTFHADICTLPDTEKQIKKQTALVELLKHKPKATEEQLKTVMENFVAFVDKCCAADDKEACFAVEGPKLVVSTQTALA
Chain of activated recombinant MMP9 (chain, as listed by the source): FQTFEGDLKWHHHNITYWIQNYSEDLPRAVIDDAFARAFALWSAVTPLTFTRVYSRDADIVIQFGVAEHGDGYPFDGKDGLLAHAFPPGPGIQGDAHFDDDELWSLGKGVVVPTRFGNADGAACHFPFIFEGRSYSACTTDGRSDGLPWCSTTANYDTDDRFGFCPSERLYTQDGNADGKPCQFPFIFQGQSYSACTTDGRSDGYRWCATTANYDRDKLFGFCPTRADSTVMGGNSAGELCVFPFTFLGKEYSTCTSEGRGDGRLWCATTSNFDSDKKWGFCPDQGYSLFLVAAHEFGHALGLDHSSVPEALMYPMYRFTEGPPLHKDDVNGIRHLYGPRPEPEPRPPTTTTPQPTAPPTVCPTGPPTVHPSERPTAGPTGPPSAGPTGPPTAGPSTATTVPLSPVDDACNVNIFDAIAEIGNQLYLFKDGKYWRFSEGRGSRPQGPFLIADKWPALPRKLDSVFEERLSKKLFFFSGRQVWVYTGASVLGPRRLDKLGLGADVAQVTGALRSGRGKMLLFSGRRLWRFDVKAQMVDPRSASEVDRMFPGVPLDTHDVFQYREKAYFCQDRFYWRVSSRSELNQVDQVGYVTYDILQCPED

| Substance | cleavage of pET-28a by Nde I after 1 hour pretreatment at 40° C. (agarose gel) [1] | cleavage of pET-28a by Nde I after 1 hour pretreatment at 40° C. (agarose gel) [2] | cleavage of Fluorogenic Peptide substrate I by 0.270 µg activated recombinant MMP9, 60 µg Heat Gamma [3] |
| --- | --- | --- | --- |
| Nde I restriction endonuclease | An equivalent amount of BSA (5 µg) did not protect the enzyme any better than the buffer control | In the presence of 5 µg of p26 protein, Nde I remained fully active, and completely cleaved pET-28a | – |
| activated recombinant MMP9 | – | – | Heat gamma efficiently inhibits the MMP9 activity as indicated by a decrease in relative fluorescence |
